Reference: patent US20250326826A1

Tests used:
Test in all cases: cell-based or functional assay
[1] = target: VEGF (soluble stimulus added to cell cultures)
[2] = target: bFGF (soluble stimulus added to cell cultures)
[3] = target: Human VEGF (dendritic cell assay) (human) (UniProt P15692)
Chain of Human VEGF (dendritic cell assay) (human) (P15692 other isoform, or with tags, fused parts or gaps limits assumed): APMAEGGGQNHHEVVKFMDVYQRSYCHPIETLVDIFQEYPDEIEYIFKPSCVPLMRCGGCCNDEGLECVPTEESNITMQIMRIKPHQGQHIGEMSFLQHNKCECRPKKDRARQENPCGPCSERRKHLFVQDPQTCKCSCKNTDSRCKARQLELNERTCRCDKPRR

- IC50, proliferation of HDMEC cells +VEGF (5 ng/ml) [1]: > 6 µM
- PD1 expression (%) in CD8+ cells treated with VEGF, VHH 1 µg/mL [1]: 68%
- PD1 expression (%) in CD8+ cells treated with VEGF, VHH 5 µg/mL [1]: 67%
- PD1 expression (%) in CD8+ cells treated with VEGF, VHH 10 µg/mL [1]: 65%
- average of nodes of the HDMEC network on Matrigel, VEGF 100 ng/mL, VHH 150 nM (nodes per field) [1]: 41
- IC50, bFGF-induced proliferation of 3T3A31 cells [2]: > 250
- IC50, bFGF-induced proliferation of A549 cells [2]: > 250
- IC50, bFGF-induced proliferation of B16F10 cells [2]: > 250
- IC50, bFGF-induced proliferation of NIH3T3 cells [2]: > 250
- IC50, proliferation of HDMEC cells +bFGF (10 ng/ml) [2]: > 6 µM
- average of nodes of the HDMEC network on Matrigel, bFGF 10 ng/mL, VHH 150 nM (nodes per field) [2]: 40
- CD86 (MFI) on dendritic cells +VEGF +LPS, VHH 1 µg/mL [3]: 1980 MFI
- CD86 (MFI) on dendritic cells +VEGF +LPS, VHH 5 µg/mL [3]: 2050 MFI
- CD86 (MFI) on dendritic cells +VEGF +LPS, VHH 10 µg/mL [3]: 2000 MFI
- MHCII (MFI) on dendritic cells +VEGF +LPS, VHH 1 µg/mL [3]: 5210 MFI
- MHCII (MFI) on dendritic cells +VEGF +LPS, VHH 5 µg/mL [3]: 5140 MFI
- MHCII (MFI) on dendritic cells +VEGF +LPS, VHH 10 µg/mL [3]: 4910 MFI
Substance: Nb-Neg (VHH)
